In one test the target is cMet-Fc fusion protein (Homo sapiens, UniProt P08581). Briefly: Protein phage ELISA: peptide-displaying phage binding to soluble cMet-Fc versus TRAIL-Fc. The following applies: phage isolate; cMet-Fc vs. TRAIL-Fc. The procedure, abridged:
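Plates coated with 0.5 μg/mL cMet-Fc or, as background, TRAIL-Fc, then blocked with 3% BSA in PBST. Peptide-displaying phage bound 2 h at room temperature. Detection with HRP-anti-M13 antibody.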

Test [1] addresses T1, 3T3 cells that over-express human cMet (Homo sapiens, UniProt P08581).
T1 construct: expressed in transfected cells; host or cells: 3T3 cells
Briefly: Whole cell ELISA of peptide-displaying phage. It counts as cell-based. The conditions noted are these: phage isolate; 3T3 cells expressing human cMet vs. non-expressing 3T3 cells. The procedure, abridged:
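3T3 cells over-expressing human cMet seeded 10^5/well, pelleted and fixed with 0.1% glutaraldehyde 12 min at 37 °C. Blocked peptide-displaying phage bound 1 h at room temperature; after PBST wash, bound phage detected with HRP-conjugated anti-M13 antibody.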

Chain of cMet-Fc fusion protein (P08581 25-307 limits assumed): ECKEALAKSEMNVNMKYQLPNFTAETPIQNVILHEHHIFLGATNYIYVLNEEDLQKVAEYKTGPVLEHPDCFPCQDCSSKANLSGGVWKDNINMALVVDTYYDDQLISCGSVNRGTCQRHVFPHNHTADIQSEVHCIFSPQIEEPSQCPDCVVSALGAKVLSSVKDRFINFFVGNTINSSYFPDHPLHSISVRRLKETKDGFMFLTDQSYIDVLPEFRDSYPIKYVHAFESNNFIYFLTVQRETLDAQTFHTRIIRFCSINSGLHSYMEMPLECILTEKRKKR
Chain of cMet-Fc fusion protein (P08581 with tags, fused parts or gaps limits assumed): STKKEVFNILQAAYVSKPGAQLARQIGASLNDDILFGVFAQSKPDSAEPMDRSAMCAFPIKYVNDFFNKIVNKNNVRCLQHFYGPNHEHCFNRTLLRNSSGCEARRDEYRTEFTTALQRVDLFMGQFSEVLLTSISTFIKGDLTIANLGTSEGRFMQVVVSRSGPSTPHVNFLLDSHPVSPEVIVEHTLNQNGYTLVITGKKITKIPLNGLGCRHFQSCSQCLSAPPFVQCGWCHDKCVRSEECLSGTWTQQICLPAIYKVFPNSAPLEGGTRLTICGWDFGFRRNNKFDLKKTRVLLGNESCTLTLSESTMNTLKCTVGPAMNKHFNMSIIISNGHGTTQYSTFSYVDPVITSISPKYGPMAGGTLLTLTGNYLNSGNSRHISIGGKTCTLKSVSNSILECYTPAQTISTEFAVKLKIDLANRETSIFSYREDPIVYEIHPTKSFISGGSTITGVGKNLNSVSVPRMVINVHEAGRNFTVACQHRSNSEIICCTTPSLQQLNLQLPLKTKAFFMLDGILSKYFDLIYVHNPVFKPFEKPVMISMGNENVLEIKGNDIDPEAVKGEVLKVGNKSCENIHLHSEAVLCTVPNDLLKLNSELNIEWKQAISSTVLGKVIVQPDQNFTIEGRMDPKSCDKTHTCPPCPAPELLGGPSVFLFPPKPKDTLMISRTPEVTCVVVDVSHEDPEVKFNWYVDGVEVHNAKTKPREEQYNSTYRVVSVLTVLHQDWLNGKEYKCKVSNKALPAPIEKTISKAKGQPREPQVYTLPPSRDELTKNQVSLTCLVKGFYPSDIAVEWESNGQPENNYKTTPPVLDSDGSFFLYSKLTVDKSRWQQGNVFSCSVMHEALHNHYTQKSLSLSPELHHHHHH
T1 sequence (P08581 25-1390): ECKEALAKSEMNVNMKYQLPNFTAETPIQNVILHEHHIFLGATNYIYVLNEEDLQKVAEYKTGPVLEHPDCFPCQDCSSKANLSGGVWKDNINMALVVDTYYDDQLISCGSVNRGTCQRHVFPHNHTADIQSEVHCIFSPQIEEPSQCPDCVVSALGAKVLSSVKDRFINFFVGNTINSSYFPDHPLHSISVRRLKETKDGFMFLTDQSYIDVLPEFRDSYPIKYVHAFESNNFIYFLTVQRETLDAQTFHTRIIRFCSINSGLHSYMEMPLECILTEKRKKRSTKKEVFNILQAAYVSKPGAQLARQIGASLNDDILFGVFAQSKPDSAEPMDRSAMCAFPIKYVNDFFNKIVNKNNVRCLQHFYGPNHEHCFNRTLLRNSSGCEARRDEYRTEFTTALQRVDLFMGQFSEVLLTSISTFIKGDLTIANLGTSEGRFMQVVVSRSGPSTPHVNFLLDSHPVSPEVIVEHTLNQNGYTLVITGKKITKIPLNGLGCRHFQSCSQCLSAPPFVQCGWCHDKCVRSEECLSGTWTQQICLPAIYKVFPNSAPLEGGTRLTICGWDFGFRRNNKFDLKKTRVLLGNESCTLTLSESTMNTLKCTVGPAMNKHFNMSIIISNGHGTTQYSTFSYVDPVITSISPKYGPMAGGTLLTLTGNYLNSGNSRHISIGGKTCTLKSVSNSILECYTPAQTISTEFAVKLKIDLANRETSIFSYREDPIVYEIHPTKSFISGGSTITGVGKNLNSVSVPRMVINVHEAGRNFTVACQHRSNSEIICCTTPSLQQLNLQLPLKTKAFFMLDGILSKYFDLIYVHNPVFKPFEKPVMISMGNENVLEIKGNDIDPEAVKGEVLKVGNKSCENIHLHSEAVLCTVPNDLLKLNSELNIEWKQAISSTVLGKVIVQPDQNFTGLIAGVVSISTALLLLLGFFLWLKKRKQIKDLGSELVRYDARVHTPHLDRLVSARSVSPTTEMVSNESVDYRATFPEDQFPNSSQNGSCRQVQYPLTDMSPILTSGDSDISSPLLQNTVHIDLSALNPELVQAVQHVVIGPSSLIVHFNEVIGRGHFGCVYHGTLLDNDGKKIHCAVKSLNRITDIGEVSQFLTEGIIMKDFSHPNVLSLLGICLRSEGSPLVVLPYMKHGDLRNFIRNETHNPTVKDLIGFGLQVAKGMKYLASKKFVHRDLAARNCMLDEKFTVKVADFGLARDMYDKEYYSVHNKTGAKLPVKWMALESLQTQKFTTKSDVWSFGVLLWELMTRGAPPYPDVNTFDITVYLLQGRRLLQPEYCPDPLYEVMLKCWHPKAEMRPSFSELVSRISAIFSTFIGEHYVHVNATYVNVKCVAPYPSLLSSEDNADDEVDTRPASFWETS

On to `CC[C@H](C)[C@H](NC(=O)CNC(=O)[C@H](Cc1ccccc1)NC(=O)[C@H](Cc1c[nH]c2ccccc12)NC(=O)[C@H](CO)NC(=O)CNC(=O)[C@H](Cc1c[nH]c2ccccc12)NC(=O)[C@H](Cc1ccccc1)NC(=O)CNC(=O)[C@H](CC(=O)O)NC(=O)[C@@H](NC(=O)[C@H](Cc1ccccc1)NC(=O)[C@H](Cc1ccc(O)cc1)NC(=O)[C@H](CCC(=O)O)NC(=O)[C@H](CCCNC(=N)N)NC(=O)[C@H](CCC(=O)O)NC(=O)[C@H](Cc1c[nH]c2ccccc12)NC(=O)[C@H](CCC(=O)O)NC(=O)[C@H](CCC(N)=O)NC(=O)[C@H](C)NC(C)=O)C(C)C)C(=O)N1CCC[C@H]1C(=O)N[C@@H](Cc1c[nH]cn1)C(=O)NCC(=O)NCC(=O)NCC(=O)N[C@@H](CCCCNC(=O)c1ccc2c(c1)C(=O)OC21c2ccc(O)cc2Oc2cc(O)ccc21)C(N)=O` [SEQ ID NO: 472], for which the “Protein ELISA” value on cMet-Fc fusion protein stood at 3.7 fold over background. In addition, the “WC ELISA” value in test [1] was determined as 1.80 fold over background.
For “AGNWICNLSEMRCYPKGT (Synthetically generated cMet-binding peptide sequence) [SEQ ID NO: 013]” the same measures were 3.9 fold over background and 1.40 fold over background.
Taken in the same sequence, the figures for `CC(=O)N[C@@H](C)C(=O)NCC(=O)N[C@@H](Cc1ccc(O)cc1)C(=O)N[C@H](C(=O)N[C@@H](CO)C(=O)N[C@H]1CSSC[C@@H](C(=O)N[C@H](C(=O)N2CCC[C@H]2C(=O)N[C@@H](Cc2ccc(O)cc2)C(=O)NCC(=O)N[C@H](C(=O)NCC(=O)NCC(=O)NCC(=O)N[C@@H](CCCCNC(=O)c2ccc3c(c2)C(=O)OC32c3ccc(O)cc3Oc3cc(O)ccc32)C(N)=O)[C@@H](C)O)[C@@H](C)O)NC(=O)[C@H](CCC(=O)O)NC(=O)[C@H](Cc2ccccc2)NC(=O)[C@H](CO)NC(=O)[C@@H]2CCCN2C(=O)[C@@H]2CCCN2C(=O)CNC(=O)[C@H](C(C)C)NC1=O)[C@@H](C)O` [SEQ ID NO: 059] were 21.2 fold over background and 1.43 fold over background.
For “AGDWICHGPPMFECEWVGT (Synthetically generated cMet-binding peptide sequence) [SEQ ID NO: 058]” the same measures were 15.9 fold over background and 1.17 fold over background.
On to “GSFTACNKTSTTRQPCNPYAP (Synthetically generated cMet-binding peptide sequence) [SEQ ID NO: 384]”, for which, in the test with cMet-Fc fusion protein, the “Protein ELISA” value is 3.1 fold over background. Moreover, in test [1], the “WC ELISA” value is 1.37 fold over background.
For “AGFWDCGWMMQDCHMHGT (Synthetically generated cMet-binding peptide sequence) [SEQ ID NO: 045]” the same measures were 3.9 fold over background and 1.33 fold over background.
Taken in the same sequence, the figures for “GSGMGCHQVNISTGDCAEDAP (Synthetically generated cMet-binding peptide sequence) [SEQ ID NO: 381]” were 3.9 fold over background and 1.43 fold over background.
For “AGWSDCLGPPQFTCVHWGT (Synthetically generated cMet-binding peptide sequence) [SEQ ID NO: 083]” the same measures were 3.9 fold over background and 1.33 fold over background.
For “AGAFFCSGPPTFMCSLYGT (Synthetically generated cMet-binding peptide sequence) [SEQ ID NO: 098]”, in the test with cMet-Fc fusion protein, the “Protein ELISA” value was determined as 6.2 fold over background. The “WC ELISA” value in test [1] amounted to 1.27 fold over background.
Taken in the same sequence, the figures for “AQWNQWDEFMWFLNPPPIGLMW (Synthetically generated cMet-binding peptide sequence) [SEQ ID NO: 480]” were 3.3 fold over background and 1.23 fold over background.
For “AGWTWCDLSMMSCIFHGT (Synthetically generated cMet-binding peptide sequence) [SEQ ID NO: 025]” the same measures were 3.2 fold over background and 1.37 fold over background.
For “AQVGESLDDGWTFFSDKWFDFF (Synthetically generated cMet-binding peptide sequence) [SEQ ID NO: 485]”, in the test with cMet-Fc fusion protein, the “Protein ELISA” value was 3.0 fold over background. For the same compound, the “WC ELISA” value in test [1] is reported as 1.17 fold over background.
Taken in the same sequence, the figures for `CSCC[C@H](NC(=O)[C@H](CC(=O)O)NC(=O)[C@H](C)NC(=O)[C@H](CC(=O)O)NC(=O)[C@H](CCC(N)=O)NC(=O)[C@H](CC(C)C)NC(=O)[C@H](CCC(=O)O)NC(=O)[C@H](Cc1ccc(O)cc1)NC(=O)[C@H](Cc1ccc(O)cc1)NC(=O)[C@@H]1CCCN1C(=O)[C@H](CCC(N)=O)NC(=O)[C@H](C)NC(C)=O)C(=O)N[C@@H](CC(C)C)C(=O)N[C@@H](CC(C)C)C(=O)N[C@H](C(=O)N[C@H](C(=O)N[C@@H](C)C(=O)N[C@@H](CC(C)C)C(=O)N[C@@H](CC(C)C)C(=O)N[C@@H](CO)C(=O)N[C@H](C(=O)NCC(=O)NCC(=O)NCC(=O)NCC(=O)N[C@@H](CCCCNC(=O)c1ccc2c(c1)C(=O)OC21c2ccc(O)cc2Oc2cc(O)ccc21)C(N)=O)[C@@H](C)O)C(C)C)C(C)C` [SEQ ID NO: 458] were 6.1 fold over background and 1.20 fold over background.
For `CC[C@H](C)[C@H](NC(=O)[C@H](CCC(N)=O)NC(=O)[C@H](CCCNC(=N)N)NC(=O)CNC(=O)[C@H](CO)NC(=O)[C@H](CC(=O)O)NC(=O)[C@H](CC(=O)O)NC(=O)[C@@H](NC(=O)[C@@H]1CCCN1C(=O)[C@H](Cc1ccccc1)NC(=O)[C@@H](NC(=O)[C@H](Cc1ccc(O)cc1)NC(=O)[C@@H]1CCCN1C(=O)[C@H](CO)NC(=O)[C@H](CCC(N)=O)NC(=O)[C@H](C)NC(C)=O)[C@@H](C)CC)[C@@H](C)CC)C(=O)N[C@@H](Cc1ccccc1)C(=O)N[C@H](C(=O)N[C@H](C(=O)N[C@@H](CCC(N)=O)C(=O)N[C@@H](Cc1c[nH]c2ccccc12)C(=O)NCC(=O)NCC(=O)NCC(=O)NCC(=O)N[C@@H](CCCCNC(=O)c1ccc2c(c1)C(=O)OC21c2ccc(O)cc2Oc2cc(O)ccc21)C(N)=O)[C@@H](C)CC)C(C)C` [SEQ ID NO: 463] the same measures were 4.4 fold over background and 1.23 fold over background.
For “GSSHCNQMITPWQNCGMRAP (Synthetically generated cMet-binding peptide sequence) [SEQ ID NO: 374]” the same measures were 3.3 fold over background and 1.37 fold over background.
“AGNLPCHWNMSVCDHQGT (Synthetically generated cMet-binding peptide sequence) [SEQ ID NO: 034]”: in the test with cMet-Fc fusion protein, the “Protein ELISA” value worked out at 3.3 fold over background. Also, in test [1], the “WC ELISA” value was determined as 1.30 fold over background.
On to “GSTKVCHEKWNQLFCHNQAP (Synthetically generated cMet-binding peptide sequence) [SEQ ID NO: 368]”, for which the “Protein ELISA” value with cMet-Fc fusion protein came out at 7.0 fold over background. Further, the “WC ELISA” value in test [1] turned out to be 1.27 fold over background.
Taken in the same sequence, the figures for `CC(=O)N[C@@H](C)C(=O)NCC(=O)N[C@@H](Cc1c[nH]c2ccccc12)C(=O)N[C@@H](Cc1ccccc1)C(=O)N[C@@H](CCC(N)=O)C(=O)N[C@H]1CSSC[C@@H](C(=O)N[C@@H](CCC(=O)O)C(=O)N[C@@H](CCCNC(=N)N)C(=O)N[C@@H](Cc2c[nH]cn2)C(=O)NCC(=O)N[C@H](C(=O)NCC(=O)NCC(=O)NCC(=O)N[C@@H](CCCCNC(=O)c2ccc3c(c2)C(=O)OC32c3ccc(O)cc3Oc3cc(O)ccc32)C(N)=O)[C@@H](C)O)NC(=O)[C@H](CCC(=O)O)NC(=O)[C@H](Cc2ccccc2)NC(=O)[C@H](CO)NC(=O)[C@@H]2CCCN2C(=O)[C@@H]2CCCN2C(=O)CNC(=O)[C@H](CCCCN)NC1=O` [SEQ ID NO: 051] were 5.4 fold over background and 1.33 fold over background.
Take “AGYWHCKGPPHFACEFHGT (Synthetically generated cMet-binding peptide sequence) [SEQ ID NO: 077]”: the “Protein ELISA” value with cMet-Fc fusion protein is 5.5 fold over background. In addition, in test [1], the “WC ELISA” value is 1.40 fold over background.
Taken in the same sequence, the figures for “GDASWCDENSPAAWFYCELWDP (Synthetically generated cMet-binding peptide sequence) [SEQ ID NO: 394]” were 13.4 fold over background and 1.37 fold over background.
Taken in the same sequence, the figures for “AQFDRYWHFAWMDVSFSSGQSG (Synthetically generated cMet-binding peptide sequence) [SEQ ID NO: 465]” were 4.3 fold over background and 1.20 fold over background.
As to “AGGFACGPPWDICWMFGT (Synthetically generated cMet-binding peptide sequence) [SEQ ID NO: 011]”, the “Protein ELISA” value with cMet-Fc fusion protein amounted to 5.6 fold over background. Moreover, the “WC ELISA” value in test [1] stood at 1.30 fold over background.
For `CC[C@H](C)[C@H](NC(=O)[C@H](C)NC(=O)[C@@H](NC(=O)[C@H](Cc1ccccc1)NC(=O)[C@H](Cc1ccccc1)NC(=O)[C@H](CC(N)=O)NC(=O)[C@H](CCCNC(=N)N)NC(=O)[C@@H](NC(=O)[C@H](Cc1c[nH]cn1)NC(=O)[C@H](CC(=O)O)NC(=O)[C@@H](NC(=O)[C@H](Cc1c[nH]c2ccccc12)NC(=O)[C@H](CC(C)C)NC(=O)[C@H](CCC(=O)O)NC(=O)[C@H](Cc1ccccc1)NC(=O)CNC(=O)[C@H](CCC(N)=O)NC(=O)[C@H](C)NC(C)=O)C(C)C)[C@@H](C)O)[C@@H](C)CC)C(=O)N[C@@H](CO)C(=O)N1CCC[C@H]1C(=O)NCC(=O)NCC(=O)NCC(=O)N[C@@H](CCCCNC(=O)c1ccc2c(c1)C(=O)OC21c2ccc(O)cc2Oc2cc(O)ccc21)C(N)=O` [SEQ ID NO: 469] the same measures were 3.8 fold over background and 1.20 fold over background.
